The IC50 is the midpoint of a concentration-inhibition curve. One may read the IC80 as the concentration at which the effect reaches the 80% level. A lower IC80 goes with an effect from little substance. What is called IC90 is the concentration needed for an effect of 90%. Lower therefore signals an effect from little substance. By IC95 is commonly meant the concentration needed for an effect of 95%. Read a low IC95 as an effect from little substance.

Holding throughout (experiment): cell-based or functional assay
Test [1] concerns the target HIV-1 Env of isolate MGRM-D-028 (clade D) (HIV-1).
Test [2] addresses HIV-1 Env of pseudovirus APV_17, clade B (HIV-1).
The target in test [3] is HIV-1 Env of pseudovirus CAAN.A2 (Acute), clade B (HIV-1).
The target of test [4] is HIV-1 IAVI-C3 envelope protein (Env) on pseudovirus (HIV-1).
The target in test [5] is HIV-1 Env of isolate 98CN009 (HIV-1).
Test [6] deals with HIV-1 Env of isolate MGRM-G-017 (clade G pseudovirus) (HIV-1).
Test [7] concerns the target HIV-1 Env of isolate MGRM-G-028 (subtype G) (HIV-1).
In test [8] the target is HIV-1 MGRM-C-015 Env (HIV-1).
Test [9] deals with HIV-1 Env of isolate MGRM-G-015 (clade G pseudovirus) (HIV-1).
In test [10] the target is HIV-1 Env of isolate MGRM-D-016 (clade D) (HIV-1).
Test [11] has as its target HIV-1 MGRM-F1-006 Env (pseudovirus) (HIV-1).
Test [12] has as its target HIV-1 MGRM-C-004 Env (HIV-1).
For test [13], the target named is HIV-1 MGRM-A-010 envelope glycoprotein (Env) on pseudovirus (HIV-1).
The target of test [14] is HIV-1 APV-6 envelope protein (Env) on pseudovirus (HIV-1).
In test [15] the target is HIV-1 MGRM-C-024 Env (HIV-1).
The target in test [16] is HIV-1 MGRM-C-005 Env (HIV-1).
For test [17], the target named is HIV-1 Env of isolate MG RM-D-011 (subtype D) (HIV-1).
For test [18], the target named is HIV-1 MGRM-Chronic-B-012 Env (pseudovirus) (HIV-1).
Test [19] concerns the target HIV-1 Env of isolate MGRM-C-010 (pseudovirus) (HIV-1 isolate MGRM-C-010, subtype C).
Test [20] deals with HIV-1 Env of isolate MG RM-D-012 (subtype D) (HIV-1).
Test [21] addresses HIV-1 Env of isolate MG RM-D-029 (subtype D) (HIV-1).
Test [22] has as its target HIV-1 NL43 Env (pseudovirus) (HIV-1).
In test [23] the target is HIV-1 92BR020 Env (pseudovirus) (HIV-1).
Test [24] has as its target HIV-1 Env of isolate MGRM-C-020 (pseudovirus) (HIV-1 isolate MGRM-C-020, subtype C).
Test [25] concerns the target HIV-1 Env of isolate MGRM-C-008 (pseudovirus) (HIV-1 isolate MGRM-C-008, subtype C).
Test [26] addresses HIV-1 Env of isolate MGRM-F1-010 (subtype F) (HIV-1).
In test [27] the target is HIV-1 Env of isolate MG RM-AG-011 (HIV-1).
Test [28] deals with HIV-1 JR-CSF Env R476A (HIV-1 (isolate JR-CSF)) (UniProt P20871).
Test [29] deals with HIV-1 JR-CSF Env N197A (HIV-1 (isolate JR-CSF)) (UniProt P20871).
Test [30] deals with HIV-1 JR-CSF Env I165A (HIV-1 (isolate JR-CSF)) (UniProt P20871).
Test [31] addresses HIV-1 JR-CSF Env D185A (HIV-1 (isolate JR-CSF)) (UniProt P20871).
The target in test [32] is HIV-1 Env of isolate MGRM-C-026 (HIV-1).
Test [33] addresses HIV-1 Env of isolate 93UG077 (HIV-1).
Test [34] has as its target HIV-1 Env of isolate 98CN006 (HIV-1).
Test [35] addresses HIV-1 Env of isolate NL43 (HIV-1).

On to 1496_C09 (PG9) (TCN-109) (antibody), for which the IC50 (µg/ml), pseudovirus neutralization in test [1] was 4.39 µg/mL; in test [2], 14.6 µg/mL; in test [3], 5.67 µg/mL; in [6], 0.03 µg/mL; in [9], 1.51 µg/mL; in test [10], 0.1 µg/mL. In test [11], this substance came in with an IC50 (µg/ml), pseudovirus neutralization of 1.45 µg/mL. Moreover, the neutralization IC50 in [4] was 12.9 µg/mL; in test [7], 0.891 µg/mL; in test [14], 0.0869 µg/mL. In test [5], the IC50, pseudovirus neutralization turned out to be 0.371 µg/mL. The IC50 in [8] was 0.5 µg/mL; in [12] it was 1.18 µg/mL; in test [15], 0.22 µg/mL; in [16], 2.98 µg/mL. For the same substance, in test [13], the IC50 (ug/ml), neutralizing activity is 0.0375 µg/mL. The substance further came in with an IC50 neutralization in test [13] of 0.0375 µg/mL. This substance also returned an IC80, neutralization in test [13] of 0.121 µg/mL. In test [13], this substance yielded an IC90, neutralization of 0.242 µg/mL. In [13], this substance gave an IC95, neutralization of 0.456 µg/mL.
In the case of 4838_L06 (PGT-121) (antibody), the IC50 (µg/mL), pseudovirus neutralization was 0.018 µg/mL in [17], above 50 µg/mL in test [20], above 50 µg/mL in [21] and 0.016 µg/mL in test [26]. The IC50, pseudovirus neutralization was 0.036 µg/mL in test [18] and above 50 µg/mL in test [22]. The IC50 (µg/mL) neutralization was above 50 µg/mL in [19], above 50 µg/mL in [24] and 0.012 µg/mL in test [25]. The neutralization IC80 in test [23] worked out at 0.0532 µg/mL. This substance registered a neutralization IC90 in test [23] of 0.101 µg/mL. In addition, the neutralization IC50 in test [27] is above 50 µg/mL.
Turning to 4858_P08 (PGT-123) (antibody), the Fold IC50 increase relative to wild-type in test [28] was found to be 2 fold; in [29], 1.4 fold; in [30], 2.2 fold; in [31], 1.9 fold. Further, the IC50 (µg/mL), pseudovirus neutralization in test [17] is 0.012 µg/mL; in test [20] it was above 50 µg/mL; in test [21], above 50 µg/mL; in [26] it was 0.016 µg/mL. Besides, the IC50, pseudovirus neutralization was 0.227 µg/mL in test [18], above 50 µg/mL in test [22], 0.492 µg/mL in test [13] and 0.008 µg/mL in test [23]. Further, the results for the IC50 (µg/mL) neutralization in test [19], in test [24] and in [25] were above 50 µg/mL, above 50 µg/mL and 0.011 µg/mL, respectively. This substance also displayed an IC50 (ug/ml), neutralizing activity in test [13] of 0.492 µg/mL. Besides, in [13], the IC80, pseudovirus neutralization stood at 2.79 µg/mL. In test [13], the IC90 (pseudovirus neutralization) came to 6.44 µg/mL. This substance also gave an IC95, pseudovirus neutralization in test [13] above 10 µg/mL. The same substance displayed a neutralization IC50 in test [27] above 50 µg/mL.
Consider 4877_D15 (PGT-122) (antibody), for which the IC50 (µg/mL), pseudovirus neutralization was 0.019 µg/mL in test [17], above 50 µg/mL in [20], above 50 µg/mL in test [21] and 0.024 µg/mL in test [26]. The IC50, pseudovirus neutralization was 0.066 µg/mL in [18], above 50 µg/mL in test [22] and 0.021 µg/mL in test [23]. In addition, the IC50 (µg/mL) neutralization is above 50 µg/mL in [19], 14 µg/mL in test [24] and 0.028 µg/mL in test [25]. The IC50 (ug/ml), neutralizing activity in test [13] amounted to 1.68 µg/mL. For the same substance, in test [27], the neutralization IC50 is above 50 µg/mL.
As to 5123_A06 (PGT-125) (antibody), the Fold IC50 increase relative to wild-type was 1.9 fold in [28], 1 fold in test [29], 2.3 fold in [30] and 0.6 fold in test [31]. Further, the IC50 (µg/mL), pseudovirus neutralization in test [17] is 0.008 µg/mL; in test [20], above 50 µg/mL; in [21], above 50 µg/mL; in test [26], above 50 µg/mL. Moreover, the IC50, pseudovirus neutralization in test [18] was 0.036 µg/mL; in test [22], above 50 µg/mL; in test [23] it was 0.016 µg/mL. In addition, the IC50 (µg/mL) neutralization in [19], in [24] and in test [25] was above 50 µg/mL in each case. The IC50 (ug/ml), neutralizing activity in test [13] was 0.0025 µg/mL. Besides, the figures for the neutralization IC50 in test [13] and in test [27] were 0.0055 µg/mL and above 50 µg/mL, respectively. The substance further yielded a neutralization IC80 in [13] of 0.024 µg/mL. Moreover, in [13], the neutralization IC90 came to 0.0575 µg/mL. In [13], the neutralization IC95 amounted to 0.131 µg/mL.
Regarding 5141_B17 (PGT-126) (antibody), the Fold IC50 increase relative to wild-type in test [28] turned out to be 1.5 fold; in test [29], 1.1 fold; in test [30], 2.5 fold; in test [31] it was 1 fold. Moreover, the IC50 (µg/mL), pseudovirus neutralization is 0.009 µg/mL in test [17], above 50 µg/mL in test [20], above 50 µg/mL in test [21] and above 50 µg/mL in [26]. Moreover, the IC50, pseudovirus neutralization in [18] is 0.027 µg/mL; in test [22] it was above 50 µg/mL; in test [23] it was 0.015 µg/mL. Further, the IC50 (µg/mL) neutralization in test [19] was above 50 µg/mL; in test [24], above 50 µg/mL; in [25], 2.12 µg/mL. In addition, the IC50 in [22] was above 10 µg/mL; in test [23], 0.0163 µg/mL. For the same substance, the IC80 in test [22] is above 10 µg/mL; in test [23], 0.0457 µg/mL. For the same substance, the IC90 was above 10 µg/mL in test [22] and 0.0846 µg/mL in test [23]. The IC95 in test [22] is above 10 µg/mL; in test [23], 0.152 µg/mL. The substance also had an IC50 (ug/ml), neutralizing activity in test [13] of 0.0033 µg/mL. The neutralization IC50 in test [27] was found to be 24.5 µg/mL.
For 5145_B14 (PGT-127) (antibody), the Fold IC50 increase relative to wild-type in test [28] came to 1.2 fold; in test [29] it was 0.6 fold; in test [30] it was 1.7 fold; in [31] it was 2 fold. In addition, the IC50 (µg/mL), pseudovirus neutralization in test [17] is 0.015 µg/mL; in [20], above 50 µg/mL; in test [21], above 50 µg/mL; in [26], above 50 µg/mL. Besides, the IC50, pseudovirus neutralization was 0.075 µg/mL in [18], above 50 µg/mL in test [22] and 0.059 µg/mL in test [23]. Also, the IC50 (µg/mL) neutralization in test [19], in test [24] and in test [25] was above 50 µg/mL in each case. The neutralization IC50 in [27] is above 50 µg/mL.
With PGT-121 (antibody), in [32], the Primary Neutralization Index (B cell culture well 4838 L06) was found to be 996 and the Primary Neutralization Index (B cell culture well 4873 E03) was found to be 371. Besides, in test [33], the IC50 (µg/mL), pseudovirus neutralization is 0.019 µg/mL.
Consider PGT-122 (antibody), for which, in test [33], the IC50 (µg/mL), pseudovirus neutralization came out at 0.084 µg/mL.
With PGT-141 (4964_G22; 4993_K13) (antibody), the neutralization IC50 in test [7] was 24.9 µg/mL.
Substance PGT-142 (4995_E20) (antibody) returned a neutralization IC50 in test [7] of 30.3 µg/mL.
Substance PGT-143 (4980_N08) (antibody) returned a neutralization IC50 in [7] of 43 µg/mL.
With PGT-144 (4970_K22) (antibody), in test [7], the neutralization IC50 was above 50 µg/mL.
As for PGV04 (antibody), the IC50, pseudovirus neutralization in test [34] came out at 1.32 µg/mL; in test [5], 0.0125 µg/mL. The same substance gave a neutralization IC50 in [7] of 0.352 µg/mL. This substance also gave an IC50 in [33] of 0.083 µg/mL.
Turning to VRC01 (antibody), the neutralization IC50 in [7] is 0.164 µg/mL; in test [35] it was 0.1 µg/mL.

For the origin of these results see patent US20200024330A1.
